Data: patent publication US20200190201A1
Blank lines part the entries; values can stand above or below the molecule they belong to.

What was measured:
[1] = biological target: human TrkC (full-length TrkC receptor) (human) (UniProt Q16288); assay: flow cytometry on HEK293 cells stably expressing TrkC-FL, background controls
[2] = biological target: rat TrkC (on rat spiral ganglion neurons) (rat) (UniProt Q03351); assay: cell-based or functional assay
[3] = biological target: human TrkC (full-length TrkC receptor) (human) (UniProt Q16288); assay: cell-based or functional assay
[4] = biological target: rat TrkB (on rat spiral ganglion neurons) (rat) (UniProt Q63604); assay: cell-based or functional assay
[5] = biological target: human TrkB (human) (UniProt Q16620); assay: cell-based or functional assay
UniProt Q16620, sequence (Q16620 32-822): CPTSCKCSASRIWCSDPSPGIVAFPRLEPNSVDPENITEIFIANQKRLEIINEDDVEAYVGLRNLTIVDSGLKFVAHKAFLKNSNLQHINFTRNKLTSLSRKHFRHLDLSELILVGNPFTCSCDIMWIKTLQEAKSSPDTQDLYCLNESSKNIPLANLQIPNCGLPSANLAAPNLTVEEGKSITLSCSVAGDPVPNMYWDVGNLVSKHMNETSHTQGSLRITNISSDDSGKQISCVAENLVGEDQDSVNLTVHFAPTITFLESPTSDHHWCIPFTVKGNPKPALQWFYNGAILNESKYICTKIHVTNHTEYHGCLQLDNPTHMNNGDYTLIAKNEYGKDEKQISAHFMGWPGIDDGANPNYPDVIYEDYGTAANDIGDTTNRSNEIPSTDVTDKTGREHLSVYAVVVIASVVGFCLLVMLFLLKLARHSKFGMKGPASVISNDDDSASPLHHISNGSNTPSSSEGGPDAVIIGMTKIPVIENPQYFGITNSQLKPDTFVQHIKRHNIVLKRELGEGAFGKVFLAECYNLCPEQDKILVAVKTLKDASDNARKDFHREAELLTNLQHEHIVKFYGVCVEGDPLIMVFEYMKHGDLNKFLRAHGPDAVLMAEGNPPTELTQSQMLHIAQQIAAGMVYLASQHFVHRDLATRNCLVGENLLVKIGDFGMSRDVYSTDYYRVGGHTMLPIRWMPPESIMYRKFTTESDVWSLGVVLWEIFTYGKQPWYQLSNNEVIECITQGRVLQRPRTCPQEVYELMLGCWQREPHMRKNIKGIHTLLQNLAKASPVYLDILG

UniProt Q03351, sequence (Q03351 32-864): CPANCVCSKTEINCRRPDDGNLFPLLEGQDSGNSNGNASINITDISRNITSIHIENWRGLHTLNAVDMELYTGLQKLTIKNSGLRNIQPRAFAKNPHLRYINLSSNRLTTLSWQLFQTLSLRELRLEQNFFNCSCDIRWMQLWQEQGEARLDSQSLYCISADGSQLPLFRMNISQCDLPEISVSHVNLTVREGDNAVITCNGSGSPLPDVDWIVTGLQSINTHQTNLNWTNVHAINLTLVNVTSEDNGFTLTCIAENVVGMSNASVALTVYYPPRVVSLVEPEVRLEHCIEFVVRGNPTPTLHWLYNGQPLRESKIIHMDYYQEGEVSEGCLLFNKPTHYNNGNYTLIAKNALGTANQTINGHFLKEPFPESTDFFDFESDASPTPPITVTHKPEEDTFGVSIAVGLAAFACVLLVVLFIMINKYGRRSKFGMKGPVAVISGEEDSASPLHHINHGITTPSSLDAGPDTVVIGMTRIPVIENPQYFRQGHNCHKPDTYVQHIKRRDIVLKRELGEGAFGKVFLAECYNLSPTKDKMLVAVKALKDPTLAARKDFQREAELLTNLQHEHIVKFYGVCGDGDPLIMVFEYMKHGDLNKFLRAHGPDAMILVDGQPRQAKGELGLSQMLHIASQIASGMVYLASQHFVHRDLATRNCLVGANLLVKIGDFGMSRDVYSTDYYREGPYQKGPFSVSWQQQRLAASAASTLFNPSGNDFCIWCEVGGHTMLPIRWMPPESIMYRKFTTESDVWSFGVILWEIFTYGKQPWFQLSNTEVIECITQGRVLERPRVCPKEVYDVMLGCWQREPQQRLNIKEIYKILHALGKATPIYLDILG
UniProt Q16288, sequence (Q16288 32-839): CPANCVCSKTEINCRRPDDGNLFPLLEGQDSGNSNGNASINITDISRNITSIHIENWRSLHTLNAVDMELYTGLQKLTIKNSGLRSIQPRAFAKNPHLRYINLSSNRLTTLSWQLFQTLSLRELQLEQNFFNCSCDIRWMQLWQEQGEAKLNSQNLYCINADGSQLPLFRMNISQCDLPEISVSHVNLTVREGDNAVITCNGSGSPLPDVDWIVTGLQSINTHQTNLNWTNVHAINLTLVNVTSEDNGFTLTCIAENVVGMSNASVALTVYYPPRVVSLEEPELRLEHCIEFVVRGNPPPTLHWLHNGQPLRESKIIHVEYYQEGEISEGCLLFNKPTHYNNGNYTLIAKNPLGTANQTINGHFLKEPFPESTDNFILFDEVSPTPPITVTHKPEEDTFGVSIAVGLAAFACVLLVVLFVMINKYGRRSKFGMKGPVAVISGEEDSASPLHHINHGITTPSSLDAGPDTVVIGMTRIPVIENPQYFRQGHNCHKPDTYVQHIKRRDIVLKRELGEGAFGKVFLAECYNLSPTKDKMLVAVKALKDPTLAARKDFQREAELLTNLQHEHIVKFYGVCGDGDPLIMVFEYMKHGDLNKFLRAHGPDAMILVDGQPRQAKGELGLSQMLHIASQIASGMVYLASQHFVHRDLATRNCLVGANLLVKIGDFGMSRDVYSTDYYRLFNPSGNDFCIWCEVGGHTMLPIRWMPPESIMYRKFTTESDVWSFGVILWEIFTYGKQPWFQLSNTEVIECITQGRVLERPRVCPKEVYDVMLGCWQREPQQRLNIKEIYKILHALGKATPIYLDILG
UniProt Q63604, sequence (Q63604 32-821): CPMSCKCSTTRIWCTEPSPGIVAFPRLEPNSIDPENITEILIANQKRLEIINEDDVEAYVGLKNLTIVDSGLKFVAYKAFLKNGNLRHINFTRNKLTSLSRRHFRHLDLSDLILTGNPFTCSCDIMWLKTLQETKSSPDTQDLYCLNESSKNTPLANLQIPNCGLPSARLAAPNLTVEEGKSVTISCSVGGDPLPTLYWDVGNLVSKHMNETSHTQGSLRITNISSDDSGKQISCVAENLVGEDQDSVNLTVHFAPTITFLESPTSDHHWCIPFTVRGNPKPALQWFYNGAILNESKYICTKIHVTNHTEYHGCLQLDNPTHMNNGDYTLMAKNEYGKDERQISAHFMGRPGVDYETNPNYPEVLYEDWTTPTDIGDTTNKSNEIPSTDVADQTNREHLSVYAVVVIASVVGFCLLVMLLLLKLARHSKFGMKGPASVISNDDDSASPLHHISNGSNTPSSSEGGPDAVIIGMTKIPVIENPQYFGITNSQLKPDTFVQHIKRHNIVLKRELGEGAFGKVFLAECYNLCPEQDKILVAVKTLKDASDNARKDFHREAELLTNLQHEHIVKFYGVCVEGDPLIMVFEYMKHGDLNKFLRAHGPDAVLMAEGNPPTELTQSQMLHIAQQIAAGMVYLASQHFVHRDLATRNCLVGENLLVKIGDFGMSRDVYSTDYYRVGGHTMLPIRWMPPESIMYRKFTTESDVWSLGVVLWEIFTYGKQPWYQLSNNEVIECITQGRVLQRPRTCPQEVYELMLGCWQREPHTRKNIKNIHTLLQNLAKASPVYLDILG

mean channel fluorescence (mean channel fluorescence) [1]: 10
Molecule: control mIgG (irrelevant mouse IgG, isotype-matched controls) (antibody)

EC50 of p-ERK response in 3T3 cells expressing human TrkC (AlphaLisa) [3]: 0.3 nM
B1: neurotrophin-3 (NT-3) (ligand)
chain: YAEHKSHRGEYSVCDSESLWVTDKSSAIDIRGHQVTVLGEIKTGNSPVKQYFYETRCKEARPVKNGCRGIDDKHWNSQCKTSQTYVRALTSENNKLVGWRWIRIDTSCVCALSRKIGRT
surviving rat spiral ganglion neurons per well, 4 days in culture [2]: 10 to 20 neurons/well

EC50 of p-ERK response in HEK293 cells expressing human TrkB (AlphaLisa) [5]: 0.3 nM
Maximal Effect % of p-ERK response in HEK293 cells expressing human TrkB (relative to 10 nM BDNF) [5]: 100%
B2: brain-derived neurotrophic factor (BDNF) (ligand, UniProt P23560 129-247, looked up)
chain: HSDPARRGELSVCDSISEWVTAADKKTAVDMSGGTVTVLEKVPVSKGQLKQYFYETKCNPMGYTKEGCRGIDKRHWNSQCRTTQSYVRALTMDSKKRIGWRFIRIDTSCVCTLTIKRGR
rat spiral ganglion neuron survival relative to 1 nM NT-3 (100%) [4]: 92%
